# From IntAct's records for PubMed 19345194
# B1: Homer protein homolog 1 (Rattus norvegicus (Rat)), Q9Z214-2 (parent)
# chain: MGEQPIFSTRAHVFQIDPNTKKNWVPTSKHAVTVSYFYDSTRNVYRIISLDGSKAIINSTITPNMTFTKTSQKFGQWADSRANTVYGLGFSSEHHLSKFAEKFQEFKEAARLAKEKSQEKMELTSTPSQESAGGDLQSPLTPESINGTDDERTPDVTQNSEPRAEPAQNALPFSHSSAISKHWEAELATLKGNNAKLTAALLESTANVKQWKQQLAAYQEEAERLHKRVTELECVSSQANAVHSHKTELSQTVQELEETLKVKEEEIERLKQEIDNARELQEQRDSLTQKLQEVEIRNKDLEGQLSELEQRLEKSQSEQDAFRSNLKTLLEILDGKIFELTELRDNLAKLLECS
# Variants of: B1
# Details: with shan1_rat Shank1, Q9WV48
# Chain of shan1_rat Shank1, Q9WV48 (Q9WV48 whole entry): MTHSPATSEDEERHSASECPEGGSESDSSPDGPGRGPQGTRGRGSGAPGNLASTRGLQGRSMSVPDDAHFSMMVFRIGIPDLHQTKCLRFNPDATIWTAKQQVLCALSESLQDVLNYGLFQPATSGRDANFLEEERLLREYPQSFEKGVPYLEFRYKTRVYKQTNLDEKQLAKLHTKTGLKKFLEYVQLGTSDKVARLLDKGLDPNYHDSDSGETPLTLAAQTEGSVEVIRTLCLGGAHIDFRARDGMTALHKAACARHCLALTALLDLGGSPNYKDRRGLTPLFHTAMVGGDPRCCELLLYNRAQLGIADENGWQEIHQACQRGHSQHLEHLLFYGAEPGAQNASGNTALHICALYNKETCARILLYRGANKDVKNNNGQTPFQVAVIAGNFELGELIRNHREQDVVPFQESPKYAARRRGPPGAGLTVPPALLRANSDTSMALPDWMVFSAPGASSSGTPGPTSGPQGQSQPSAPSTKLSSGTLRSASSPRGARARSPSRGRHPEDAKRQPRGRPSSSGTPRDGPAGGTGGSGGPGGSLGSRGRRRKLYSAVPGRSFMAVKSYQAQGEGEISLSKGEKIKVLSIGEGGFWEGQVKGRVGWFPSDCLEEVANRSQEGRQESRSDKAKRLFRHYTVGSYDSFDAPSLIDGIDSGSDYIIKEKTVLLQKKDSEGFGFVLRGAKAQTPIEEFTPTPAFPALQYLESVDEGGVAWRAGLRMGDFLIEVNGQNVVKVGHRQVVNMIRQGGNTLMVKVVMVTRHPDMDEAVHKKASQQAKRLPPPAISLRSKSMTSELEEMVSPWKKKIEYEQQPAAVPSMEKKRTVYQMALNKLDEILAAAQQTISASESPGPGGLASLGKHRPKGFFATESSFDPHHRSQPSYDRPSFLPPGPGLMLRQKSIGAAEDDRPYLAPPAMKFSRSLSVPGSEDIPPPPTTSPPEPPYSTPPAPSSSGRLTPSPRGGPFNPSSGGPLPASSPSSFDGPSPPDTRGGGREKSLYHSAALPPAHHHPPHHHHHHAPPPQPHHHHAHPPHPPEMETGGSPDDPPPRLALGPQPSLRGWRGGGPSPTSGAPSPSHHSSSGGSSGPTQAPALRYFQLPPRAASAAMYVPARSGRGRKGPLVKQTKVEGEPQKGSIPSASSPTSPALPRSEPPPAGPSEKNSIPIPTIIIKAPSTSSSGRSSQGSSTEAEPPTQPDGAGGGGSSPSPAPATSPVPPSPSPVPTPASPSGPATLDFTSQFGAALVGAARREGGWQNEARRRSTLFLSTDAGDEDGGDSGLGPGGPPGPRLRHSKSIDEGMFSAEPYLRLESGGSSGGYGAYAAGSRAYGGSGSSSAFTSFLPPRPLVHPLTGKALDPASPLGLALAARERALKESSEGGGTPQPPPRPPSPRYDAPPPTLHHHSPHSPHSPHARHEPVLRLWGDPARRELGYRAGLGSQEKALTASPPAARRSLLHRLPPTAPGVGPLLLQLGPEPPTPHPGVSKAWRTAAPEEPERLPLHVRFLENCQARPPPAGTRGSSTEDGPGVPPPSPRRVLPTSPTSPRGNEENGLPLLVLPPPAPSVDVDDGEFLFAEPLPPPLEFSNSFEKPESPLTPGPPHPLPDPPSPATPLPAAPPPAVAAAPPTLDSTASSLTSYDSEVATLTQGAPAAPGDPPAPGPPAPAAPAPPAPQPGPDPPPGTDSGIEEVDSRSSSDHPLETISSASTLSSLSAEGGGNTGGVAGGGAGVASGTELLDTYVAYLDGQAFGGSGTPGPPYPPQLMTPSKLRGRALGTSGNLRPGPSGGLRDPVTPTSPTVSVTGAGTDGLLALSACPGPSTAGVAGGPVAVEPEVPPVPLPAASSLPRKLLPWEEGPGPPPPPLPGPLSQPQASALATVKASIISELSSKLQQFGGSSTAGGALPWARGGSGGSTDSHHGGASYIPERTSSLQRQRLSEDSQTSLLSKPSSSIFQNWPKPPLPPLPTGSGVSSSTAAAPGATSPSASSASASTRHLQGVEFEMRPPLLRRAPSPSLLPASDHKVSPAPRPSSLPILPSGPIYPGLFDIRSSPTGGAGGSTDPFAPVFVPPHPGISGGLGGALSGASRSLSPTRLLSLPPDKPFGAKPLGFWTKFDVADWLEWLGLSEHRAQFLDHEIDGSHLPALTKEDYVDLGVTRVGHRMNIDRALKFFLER
row,effect of a mutation on the interaction,Variant
1,decreasing interaction,W24A
